Molecular target: T1, (H3.3-H4)2 tetramers (UniProt P84243 1-136; P62805 1-103)
T1 construct: Histone H3.3; Histone H4; also called H3.3-H4 tetramer; copies: 2 + 2
Test: pull-down; GST fusion proteins immobilized on Glutathione Sepharose 4 Fast Flow, histone tetramers added in 20 mM HEPES-HCl pH 7.9, 500 mM NaCl, 1 mM EDTA, 5 mM 2-mercaptoethanol, 0.1% Nonidet P-40, overnight at 4 °C; Coomassie staining
Conditions: both partners purified

binding result | Binder
binds | GST-UBN2 (109–291) (domain or fragment, UBN2, human, residues 109-291, contains the HRD domain; also called UBN2 (aa109-291); GST-UBN2-(aa109-291); source: E. coli, purified by GST tag) PRESASRAEQPPRPPRETVRLELVLKDPTDESCVEFSYPELLLCGEQRKKLIHTEDPFNDEHQERQEVEMLAKKFEMKYGGKPRKHRKDRLQDLIDIGFGYDETDPFIDNSEAYDELVPASLTTKYGGFYINTGTLQFRQASDTEEDDITDNQKHKPPKVPKIKEDDIEMKKRKRKEEGEKEK
binds | GST-UBN1 (1–213) (domain or fragment, source: E. coli, purified by GST tag) MSEPHRVQFTSLPGSLNPAFLKKSRKEEAGAGEQHQDCEPAAAAVRITLTLFEPDHKRCPEFFYPELVKNIRGKVKGLQPGDKKKDLSDPFNDEEKERHKVEALARKFEEKYGGKKRRKDRIQDLIDMGYGYDESDSFIDNSEAYDELVPASLTTKYGGFYINSGTLQFRQASESEDDFIKEKKKKSPKKRKLKEGGEKIKKKKKDDTYDKEK
